Assay results taken from paper PMC10945758 (Proceedings of the National Academy of Sciences of the …, 2024).
Values belong to the binder of their own block, whether it stands above or below them.

Experiments:
SEC = target: the molecule itself; assay: SEC
mouse TIFA(1−150/C36S) = target: T1, mouse TIFA(1−150/C36S) (mouse, UniProt Q793I8 1-150, C36S); assay: crystal structure
T1 sequence (looked up): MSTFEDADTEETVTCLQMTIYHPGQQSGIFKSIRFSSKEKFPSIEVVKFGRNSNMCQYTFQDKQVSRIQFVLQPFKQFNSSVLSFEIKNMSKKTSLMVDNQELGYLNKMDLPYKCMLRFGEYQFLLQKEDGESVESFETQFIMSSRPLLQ

mouse TIFA(1−150) = target: T2, mouse TIFA(1−150) (mouse, UniProt Q793I8 1-150); assay: SEC
T2 sequence (looked up): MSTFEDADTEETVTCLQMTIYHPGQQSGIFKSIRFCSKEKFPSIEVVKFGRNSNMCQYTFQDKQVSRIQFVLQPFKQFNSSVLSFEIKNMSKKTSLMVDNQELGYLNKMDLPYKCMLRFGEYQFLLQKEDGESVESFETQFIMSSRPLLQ

B1: mouse TIFA dimer (natural protein, UniProt Q793I8 1-184, looked up)
chain: MSTFEDADTEETVTCLQMTIYHPGQQSGIFKSIRFCSKEKFPSIEVVKFGRNSNMCQYTFQDKQVSRIQFVLQPFKQFNSSVLSFEIKNMSKKTSLMVDNQELGYLNKMDLPYKCMLRFGEYQFLLQKEDGESVESFETQFIMSSRPLLQENNWPTQNPIPEDGMYSSYFTHRSSPSEMDENEL
stoichiometry N (SEC): 2

binding result (mouse TIFA(1−150/C36S)): binds
B2: mouse TIFAB(1−139) (domain or fragment, UniProt Q8JZM6 1-139, looked up)
chain: MERPLTVLQVSLYHPTQGPVAFAHVPQQLQHDASRLLVGRGQNTHLQLQLPQLSRYHLSLEPYLEKGSSLLAFCLKVLTRKSCVWVNGLPLRYLEQVPLGTINRISFSGIQMLVRKEGGASLETFVCYFHLSPSPLIYR

binding result (mouse TIFA(1−150)): binds
B3: mouse TIFAB, full length, coexpressed with TIFA (natural protein, UniProt Q8JZM6 1-147, looked up)
chain: MERPLTVLQVSLYHPTQGPVAFAHVPQQLQHDASRLLVGRGQNTHLQLQLPQLSRYHLSLEPYLEKGSSLLAFCLKVLTRKSCVWVNGLPLRYLEQVPLGTINRISFSGIQMLVRKEGGASLETFVCYFHLSPSPLIYRPKAQETDE
